# In US20230303681A1 (published 2023):
# Residue numbers refer to the chain shown, from its start. Values joined by “and” are separate entries in the source; they are usually repeats but may differ in a detail not shown here. Equal values may be shown once.
# B1: anti-TMEM106B antibody TM-35 (antibody, V domains shown)
# VH: QVQLQQSGPELVRPGTSVKISCKAPGYTFTRHWMQWVRQRPGQGLEWIGEILPGSNNIYYNEKVKGKATLTVDTSSSTSYMQLSSLTSEDSAVYFCARSLYDYDGVFAYWGQGTLVTVSA
# VL: DVLMTQIPLSLPVSLGDQASISCRSSQSIVHRNGNTYLEWYLQKPGQSPKLLIYKVSNRFSGVPDRFSGSGSGTDFTLKISRVEAEDLGVYYCFQGSHVPYTFGGGTKLEIK
# B2: anti-TMEM106B antibody TM-48 (antibody, V domains shown)
# VH: QVQLQQSGPELVKPGASVKLSCKASGYTFTSYDINWVKQRPGQGLEWIGWIYPRDGNTQYIEKLKGKATLTVDTSSSTAYMELHSLTSEDSAVYFCARWIFYAMDYWGQGTSVTVSS
# VL: B1 VL with I7T, D17N, R32G, V99L
# B3: anti-TMEM106B antibody TM-7 (antibody, V domains shown)
# VH: EVQLQQSGPVLVKPGPPVKISCKASGFTFTDYYIHWVKLSHGKSLEWIGLVYPYNGDTDYNQKFKGKATLTVDTSSSTAYMELNSLTSEDSAVYYCARTYYANSPDYWGQGTTVTVSS
# VL: DIVMTQSPSSLSVSAGEKVTMSCKSSQSLLNSGNQRNYLAWYQQKPGQPPKLLIYGASTRESGVPDRFTGSGSGTDFTLTISNVQAEDLAVYYCQNDHSYPLTFGAGTKLELK
# B4: anti-TMEM106B antibody TM-9 (antibody, V domains shown)
# VH: EVQLVESGGDLVKPGGSLKLSCVASGFTFSGYGMSWVRQTPDKRLEWVATISSGSFYIYYPDSVKGRLTVSRDNAKNTLYLQMSSLKSEDTAIYYCARQNFYYGCEDYWGQGTTLTVSS
# VL: DIVMTQAAFSNPVTLGTSASISCRSSKSLLHSNGITYLYWYLQKPGQSPQLLIYQMSNLASGVPNRFSSSGSGTDFTLRISRVEAEDVGVYYCAQNLELPWTFGGGTKLEIK
# B5: anti-TMEM106B antibody TM-42 (antibody, V domains shown)
# VH: QVQLQQSGAELAKPGASVKLSCKASGYTFTNYWMHWVKKRPGQGLEWIGYINPSSGYTKYNQKFKDKATLTADKSSNTAYMQLSSLTYEDSAVYYCTREGGSISDWYFDVWGTGTTVTVSS
# VL: DIVMTQAAPSLPVTPGESVSISCRSSKSLLHSNGNTYLYWFLQRPGQSPQLLIYRMSNLASGVPDRFSGSGSGTAFTLRISRVEAEDVGVYYCMQHLEYPYTFGGGTKLEIK
# B6: anti-TMEM106B antibody TM-45 (antibody, V domains shown)
# VH: B5 VH
# VL: B5 VL
# B7: anti-TMEM106B antibody TM-37 (antibody, V domains shown)
# VH: B5 VH with N31S, K39Q, I51V, Y60N, A68V, N77S, T97A
# VL: B5 VL with L11V, L38S
# B8: anti-TMEM106B antibody TM-39 (antibody, V domains shown)
# VH: HVQRQQSGTELAKPGASVKLSCKTSGYTFTDYWMHWIKQRPGQGLEWIGFINPSSGYTKYNQNFKDKATLTADKSSSTAYMQLSSLTYEDSAVFYCAREAGSISDWYFDVWGTGTTVTVSS
# VL: B5 VL with L11I, S28T, H31N, S48P, E98D, K108Q
# B9: anti-TMEM106B antibody TM-46 (antibody, V domains shown)
# VH: QVQLQQSGADLVKPGASVKISCKASGYAFSSFWMNWVKLRPGKGLEWIGQIYPGDGDTDYNGKFKDKATLTADTSSNTAYMQLSRLTSEDSAVYFCARGDGFSYFDYWGQGTILTVSS
# VL: QIVLTQSPVIMSASPGERVTMTCCASSRVNYMHWYQQKSGSYPKRWIYDTSKLASGVPGRFSGSGSGTSYSLTISSMEAEDAATYYCQQWSSNPPTFGGGTKLEIK
# B10: anti-TMEM106B antibody TM-47 (antibody, V domains shown)
# VH: QVQLKESGPVLVAPSQSLSITCTVSGFSLTNYGVHWVRQPPGKGLEWLGVIWAGGNTNYNSALMSRLSISKDNSKSQVFLKMNSLQTDDTAMYYCAKEAKLLRSYAMDYWGQGTSVTVSS
# VL: B3 VL with S12T, S14T, R36K, A40T, G56W, N83S, H98Y, L112I
# notes: mouse IgG from hybridoma
# B11: anti-TMEM106B antibody TM-34 (antibody, V domains shown)
# VH: EVQLVESGGGLVKPGGSLKLSCAASGFSFSDSGMDWVRQAPEKGLEWFAYISSGSSTTHYADTVKGRFIISRDNAKNTLFLQMTSLRSEDTAMYYCVRRDGNYWYFDVWGTGTTVTVSS
# VL: QIVLSQSPVILSASPGEKVTMTCRATSSVTYMHWYQLKPGSSPKPWIYATSNLASGVPARFSGSGSGTSYSLTISRVEAEDAATYYCQQWSSNPYTFGGGTKLEIK
# B12: anti-TMEM106B antibody TM-51 (antibody, V domains shown)
# VH: QVQLQQPGAELVKPGASVKLSCKASGYTFTTYWIDWVKQRPGQGLEWIGNMFPGSSRTNYNEKFKSRATLTVDTSSSTAYMQLSSLTSDDSAVYYCARKEGLWTYGYDGGAWFAYWGQGTLVTVSA
# VL: DIVMSQSPSSLAVSVGEKVTMSCKSSQSLRNSRTRKNYLAWYQQKPGQSPKLLIYWASTRESGVPDRFTGSGSGTDFTLTISSVQAEDLAIYYCKQSYNLLTFGAGTKLELK
# notes: mouse IgG from hybridoma
# Molecular target: T1, human TMEM106B (human, UniProt Q9NUM4 2-274)
# T1 construct: Full-length, on transiently transfected HEK293 cells, or natively expressed on HeLa, U251 and A549 cells; also called huTMEM106B; huTMEM
# Experiment: FACS A549
row,Binder,MFI
1,B1,982
2,B2,677
3,B3,647
4,B4,1990
5,B5,947
6,B6,819
7,B7,1040

# Molecular target: T1, human TMEM106B
# Experiment: FACS HeLa;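 further: flow cytometry of cells incubated with hybridoma supernatant or purified antibody at 10 µg/ml for 1 h on ice, propidium iodide–positive dead cells gated out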
# Protocol: All cells were cultured in either T75 or T150 flasks. […] The enzyme was quenched by addition of fresh media, and the cells were then distributed into 96-well plates for FACS analysis.
# FACS analysis was performed as follows. Each cell type was aliquoted in 96-well round bottom plates (2x10^5 cells per well), washed once with FACS buffer (PBS + 2% FBS + 1 mM EDTA), and incubated with 50 µL of hybridoma supernatant or purified antibody (10 µg/ml in FACS buffer) on ice for 1 hour. […] Following this secondary incubation, the cells were again washed 2x with ice-cold FACS buffer and resuspended in a final volume of 50 µL of FACS buffer + 0.25 µl/well propidium iodide (Fisher Scientific # BDB556463). Analysis was performed on a FACSCanto system (BD Biosciences) or iQue (Intellicyt), with sort gates drawn to exclude dead (i.e., propidium iodide positive) cells.
# Data is presented as mean fluorescence intensity (MFI).
row,Binder,MFI
1,B1,241
2,B2,219
3,B3,1070
4,B4,2540
5,B5,215
6,B6,191
7,B7,254

# Molecular target: T1, human TMEM106B
# Experiment: FACS U251;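 further: flow cytometry of cells exposed to antibody (purified at 10 µg/mL, or hybridoma supernatant) for 1 h on ice, with propidium iodide-positive dead cells gated out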
row,Binder,MFI
1,B1,370
2,B2,346
3,B3,442
4,B4,1540
5,B5,326
6,B6,517
7,B7,408

# Molecular target: T2, mouse TMEM106B (mouse, UniProt Q80X71 2-275)
# T2 construct: on transiently transfected HEK293 cells, or natively expressed on mouse Neuro2a cells; also called moTMEM106B; murine TMEM106B
# Experiment: FACS Neuro2a;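 further: flow cytometry of cells stained with antibody or hybridoma supernatant (purified antibody at 10 µg/ml) for 1 h on ice, propidium iodide–positive dead cells gated out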
row,Binder,MFI
1,B1,181
2,B2,292
3,B3,1200
4,B4,2710
5,B5,237
6,B6,187
7,B7,208

# Molecular target: T3, GST (Pierce) (UniProt P08515 1-218 = GST, limits assumed)
# T3 construct: control for the GST part of the fusion protein; also called GST protein; Glutathione-S-transferase
# Experiment: ELISA, coated GST;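 further: ELISA on plates coated with GST alone at 1-10 µg/ml, antibodies applied at 100-1000x dilution, bound antibody detected by peroxidase substrate colour after acid stop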
# Protocol: Briefly, 96-well polystyrene plates were coated with 1-10 µg/ml of recombinant GST-TMEM106B-truncated protein or GST (Pierce) in PBS either at 370 Cfor 1-4 hours or overnight at 4 °C. Coated plates were then blocked with 5% BSA for 1-hour, washed 3×150 µL in TBST (Tris-buffered saline + 0.1% Tween20), and then the antibodies were added at various dilutions (100-1000x) in PBS. After 1-hour incubation (room temperature, with shaking), the plates were washed 3x150 µL in TBST. […] After a final set of washes (3×150µL in TBST), 100 µL of peroxidase substrate was added for 1 minute; the reaction was then quenched with 2N sulfuric acid (100 µL).
row,Binder,binding result
1,B3,no binding
2,B4,no binding

# Molecular target: T1, human TMEM106B
# Experiment: FACS A549, 1 ug/ml
# Protocol: (§1) Purified anti-TMEM106B antibodies were evaluated for their binding affinity to various TMEM106B-expressing cell lines including HEK293 transiently transfected with human/cyno/mouse TMEM106B, as well as HeLa cells and A549 cells. Antibodies tested for this experiment were mouse IgGs purified from hybridoma supernatant. Affinity binding to cells was determined as follows. Briefly, 1x10^5 cells were aliquoted per well in 96-well round bottom plates and incubated with 50 µL of purified anti-TMEM106B antibody at various concentrations (10x dilutions starting at 10 µg/ml) in FACS buffer (PBS + 2% FBS + 1 mM EDTA). […] Sorting was performed on a iQue (Intellicyt), with sort gates drawn to exclude dead (propidium iodide +) cells. Binding data was analyzed using median fluorescent intensity (MFI) and graphed in Prism. Values presented are MFI.
row,Binder,MFI
1,B1,3270
2,B2,1580
3,B3,883
4,B4,4880
5,B5,1780
6,B6,1860
7,B8,3610
8,B7,2980

# Molecular target: T1, human TMEM106B
# Experiment: FACS A549, 10 ug/ml
# Protocol: as §1
row,Binder,MFI
1,B1,4200
2,B2,2450
3,B3,1810
4,B4,7090
5,B5,3300
6,B6,3240
7,B8,5330
8,B7,4210

# Molecular target: T3, GST (Pierce)
# Experiment: array SPR, Ab immobilised;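 on Kd: antibodies amine-coupled on an MX-96 chip, antigen flowed at 500 nM top concentration in 5-fold serial dilutions, GST alone run as nonspecific-binding control, duplicate measurements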;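 on koff: antibodies amine-coupled on an MX-96 chip, antigen flowed at 500 nM top concentration in 5-fold serial dilutions, GST alone run as nonspecific-binding control, duplicate measurements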
row,Binder,binding result
1,B9,no binding
2,B1,no binding
3,B2,no binding
4,B10,no binding
5,B11,no binding
6,B5,no binding
7,B6,no binding
8,B8,no binding
9,B7,no binding
10,B12,no binding

# Molecular target: T1, human TMEM106B
# Experiment: FACS, HEK293 transfectants;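 on fold over negative controls: hybridoma supernatants incubated 30 min on ice with human TMEM106B-expressing HEK293 cells, binding read as anti-mouse-APC median fluorescence on live cells, relative to secondary-antibody-only wells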;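 on fold-change over parental HEK293: flow cytometry binding of hybridoma supernatants to HEK293 cells transiently expressing human, cyno or mouse TMEM106B, read as anti-mouse-APC median fluorescence, live cells only, 30 min on ice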
# Protocol: Initial screening of the anti-TMEM106B hybridomas was performed as follows.
# For screening of the hybridoma cell culture supernatants, humanTMEM106B-transfected HEK293 cells were aliquoted in 96-well round bottom plates (2x10^5 cells per well) and incubated with 50 µL of hybridoma cell culture supernatant on ice for 30 minutes. […] Cell sorting was performed on a FACS Canto system (BD Biosciences) or iQue (Intellicyt), with sort gates drawn to exclude dead (i.e., propidium iodide-positive) cells. Median fluorescence intensity (MFI) of anti-mouse-APC MFI on TMEM106B+ HEK293 cells was calculated for each clone, and those displaying a signal of at least 2-fold over background compared to a secondary-antibody only well were taken forward for further analysis and characterization.
row,Binder,fold over negative controls
1,B1,> 2 fold
2,B2,> 2 fold
3,B3,> 2 fold
4,B4,> 2 fold
5,B8,> 2 fold

# Molecular target: T4, GST-fusion human TMEM106B truncated (human)
# T4 construct: also called GST-TMEM106B-truncated protein; GST-TMEM106B (truncated)
# Experiment: array SPR, Ab immobilised;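 on Kd: antibodies amine-coupled on an MX-96 chip, antigen flowed at 500 nM top concentration in 5-fold serial dilutions, GST alone run as nonspecific-binding control, duplicate measurements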;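 on koff: antibodies amine-coupled on an MX-96 chip, antigen flowed at 500 nM top concentration in 5-fold serial dilutions, GST alone run as nonspecific-binding control, duplicate measurements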
# Protocol: Binding kinetic characterization of the purified antibodies was performed by Carterra using a proprietary array SPR instrument (MX-96) as follows. Briefly, antibodies were prepared by diluting to 5 µg/ml in 10 mM Acetate, pH 4.5 (Carterra), at 150 µL/well and then made an additional dilution at 1:10 from there by titrating 11 µl into 100 µL. […] The chip was activated with 18 mM EDC (Sigma Bioxtra) and 4.5 mM S-NHS (Thermo Fisher) diluted in 100 mM MES, pH 5.5, for 7 minutes, and then antibodies were coupled for 10 minutes at 45 µL/minute. After coupling, the chip was returned to the MX-96 and quenched for 7 minutes using 1 M Ethanolamine pH 8.5 (Carterra).
# Printed antibodies were profiled for their ability to bind GST-TMEM106B (truncated) protein (described above). Briefly, GST-TMEM106B (truncated) antigen was diluted to 18 µg/ml (500 nM of 36 kDa fusion protein) by mixing 2.7 µL of 2.0 mg/ml antigen into 298 µL Running buffer (HBS-EP+, Teknova with 1 mg/ml BSA, Sigma), and titrated 50 µl into 200 µl for 5-fold serial dilutions. In addition, binding to GST (Pierce) was assayed under the same conditions to determine the extent of any nonspecific binding of the anti-TMEM106B antibodies to GST portion of the TMEM106B-GST fusion protein. Duplicate measurements for each anti-TMEM106B antibody were taken to ensure reproducibility.
Binder,Kd,koff,kon
B1,6 nM and 6.8 nM,9e-05 s⁻¹ and 0.00011 s⁻¹,15000 M⁻¹ s⁻¹ and 16000 M⁻¹ s⁻¹
B2,3.1 nM and 3.9 nM,5.3e-05 s⁻¹ and 5.6e-05 s⁻¹,17000 M⁻¹ s⁻¹ and 14000 M⁻¹ s⁻¹
B3,,,9900 M⁻¹ s⁻¹ and 10000 M⁻¹ s⁻¹
B4,4.2 nM and 5.2 nM,8.3e-05 s⁻¹ and 8.4e-05 s⁻¹,20000 M⁻¹ s⁻¹ and 16000 M⁻¹ s⁻¹
B5,33 nM and 24 nM,,
B6,19 nM and 18 nM,,
B8,4.1 nM and 2.2 nM,5.8e-05 s⁻¹ and 3e-05 s⁻¹,14000 M⁻¹ s⁻¹
B7,2.6 nM and 6.3 nM,,

# Molecular target: T1, human TMEM106B
# Experiment: FACS HEK+huTMEM, 10 ug/ml;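 further: purified mouse IgG antibodies at 10 µg/ml bound to HEK293 cells transiently expressing human TMEM106B, measured by flow cytometry as median fluorescence intensity of propidium iodide negative live cells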
# Protocol: as §1
row,Binder,MFI
1,B1,48700
2,B2,38200
3,B3,40800
4,B4,56400
5,B5,60100
6,B6,58100
7,B8,51900
8,B7,50500

# Molecular target: T1, human TMEM106B
# Experiment: FACS, HEK293 transfectants;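 on fold over negative controls: hybridoma supernatants incubated 30 min on ice with human TMEM106B-expressing HEK293 cells, binding read as anti-mouse-APC median fluorescence on live cells, relative to secondary-antibody-only wells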;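 on fold-change over parental HEK293: flow cytometry binding of hybridoma supernatants to HEK293 cells transiently expressing human, cyno or mouse TMEM106B, read as anti-mouse-APC median fluorescence, live cells only, 30 min on ice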
# Remark: another data set of the same source
row,Binder,fold-change over parental HEK293
1,B1,11.5 fold
2,B2,16.7 fold
3,B3,17.5 fold
4,B4,10.7 fold

# Molecular target: T5, cynomolgus (cyno) TMEM106B (cynomolgus, UniProt Q9NUM4 2-274 (human entry))
# T5 construct: on transiently transfected HEK293 cells
# Experiment: FACS, HEK293 transfectants;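 on fold over negative controls: hybridoma supernatants incubated 30 min on ice with human TMEM106B-expressing HEK293 cells, binding read as anti-mouse-APC median fluorescence on live cells, relative to secondary-antibody-only wells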;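 on fold-change over parental HEK293: flow cytometry binding of hybridoma supernatants to HEK293 cells transiently expressing human, cyno or mouse TMEM106B, read as anti-mouse-APC median fluorescence, live cells only, 30 min on ice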
row,Binder,fold-change over parental HEK293
1,B1,14.7 fold
2,B2,16.4 fold
3,B3,47.5 fold
4,B4,22.3 fold

# Molecular target: T2, mouse TMEM106B
# Experiment: FACS, HEK293 transfectants;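 on fold over negative controls: hybridoma supernatants incubated 30 min on ice with human TMEM106B-expressing HEK293 cells, binding read as anti-mouse-APC median fluorescence on live cells, relative to secondary-antibody-only wells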;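 on fold-change over parental HEK293: flow cytometry binding of hybridoma supernatants to HEK293 cells transiently expressing human, cyno or mouse TMEM106B, read as anti-mouse-APC median fluorescence, live cells only, 30 min on ice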
row,Binder,fold-change over parental HEK293
1,B1,1.04 fold
2,B2,28.5 fold
3,B3,15.5 fold
4,B4,8.52 fold

# Molecular target: T1, human TMEM106B
# Experiment: FACS HEK+huTMEM, 0.1 ug/ml;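 further: flow cytometry binding of purified mouse IgG antibodies to HEK293 cells transiently expressing TMEM106B, read as median fluorescence intensity with propidium iodide positive dead cells gated out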
# Protocol: as §1
row,Binder,MFI
1,B1,22600
2,B2,21600
3,B3,9870
4,B4,28300
5,B5,16700
6,B6,21300
7,B8,19200
8,B7,29400

# Molecular target: T1, human TMEM106B
# Experiment: FACS HEK+huTMEM, 1.0 ug/ml
row,Binder,MFI
1,B1,55400
2,B2,39900
3,B3,40000
4,B4,62100
5,B5,58100
6,B6,57600
7,B8,55600
8,B7,58700

# Molecular target: T1, human TMEM106B
# Experiment: FACS HEK+huTMEM, 0.01 ug/ml
row,Binder,MFI
1,B1,4080
2,B2,4050
3,B3,1670
4,B4,3940
5,B5,2070
6,B6,2500
7,B8,3850
8,B7,3920
